Results: the RNAGym collection of RNA variant scans (doi:10.1073/pnas.2313332121)

B1: TPR t1 (parent)
chain: GACCAAUCUGCCCUCAGAGCUCGAGAACAUCUUCGGAUGCAGAGGAGGCAGGCUUCGGUGGCGCGAUAGCGCCAACGUCCUCAACCUCCAAUGCAUCCCACCACAUGAUGAUGCCUGAAGAGCCUUGGUUUUUUG

Variants of: B1
Test: polymerase ribozyme fitness, log enrichment relative to wild type (log ratio); higher = more active; in vitro selection for triplet polymerase activity
Summary of the method: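 A single round of triplicate in vitro selection, including frozen incubation at −7 °C, was applied to PCR-built, transcribed mutant libraries of each subunit of a heterodimeric triplet polymerase ribozyme. Illumina sequencing of input and output libraries retained genotypes with ≥10 input reads and ≥1 read per output. Fitness is the base-2 logarithm of genotype enrichment divided by wild-type enrichment, from inverse-variance-weighted replicate averages.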

| Variant | polymerase ribozyme fitness (log ratio) |
| --- | --- |
| GACCAAUCAGCCCUCAGAGCUCGAGAACAUCUUCGGAUGCAGAGGAGGCAGGCUUCGGUGGGGCGAUAGCGCCAACGUGCUCAACCUCCAAUGCAUCCCACCACAUGAUGAUGCUUGAAGAGCCUUGGUUUUUUG | -4.57 |
| GACCAAUCUGCCCUCAGAGCUCGAGAACAUCUUCGGAUGCAGAGAAGGCAGGCUUCGGUGGCGCGAUAGCGCCAACGUCCUCAACCUCCAAUGCAUUCCACCACAUGAUGAUGCCUGAAGAGCCUUGGUUUUUUG | -2.83 |
| GACCAAUCUGCCUUCAGAGCUCGAGAACAUCUUCGGAUGCAGAGGAGGCAGGCUUCGGUGGCGCGAUAGCGCCAACGUCCUCAACCUCCAAUGCAUCCCACCACAUGAUGAUGCCUCAAGAGCCUUGGUUUUUUG | -2.68 |
| GACCAAUCUGCCCUCAGAGCUCGAGAACAUCUUCGGAUGCAGAGGAGGCAGGUUUCGGUGGCGCGAUAGCGCCAACGUCCUCAACCUCCAAUGCAUCCCACCACAUGAUGAUGCCUGAAAAGCCUUGGUUUUUUG | 0.773 |
| GACCAAUCUGCCUUCAGAGCUCGAGAACAUCGUCGGAUGCAGAGGAGGCAGGCUUCGGUGGCGCGAUAGCGCCAACGUCCUCAACCUCCAAUGCAUCCCACCACAUGAUGAUGCCUGAAGAGCCUUGGUUUUUUG | -5.28 |
| GACCAAUCUGCCCUCAGAGCUCGAGGACAUCUUCGGAUGCAGAGGAGGCAGGCUUCGGUGGCGCGAUAGCGCCAACGUCCUCAACCUCCAAUGCAUCCCACCACAUGAUGAUGCCUGAAGAGCGUUGGUUUUUUG | 0.285 |
| GACCAAUCUGGCCUCAGAGCUUGAGAACAUCUUCGGAUGCAGAGGAGGCUGGCUUAUGUGGCGCGAUAGCGCCAACGUCCUCAACCUCUAAUGCAUCCCACCACAUGAUGAUGCCUGAAGAGCCUUGGUUUUUUG | -6.34 |
| GACCAAUAUGCCCUCAGAGCUCGAGAACAUCUUCGGAUGCAGAGGAGGCAGGCUCCGGUGGCGCGAUAGCGCCAACGUGCUCAACCUCCAAUGAAUCCCACCACAUGAUGAUGCCUGAAGAGCCUUGGUUUUUUG | -3.64 |
| GACCAAUCAGCCCUCAGUGCUCGAGAACAUCUUCGGAUGCAGAGGAGGCAGGCUUCGGUGGCGUGAUAGCGCCAACGUCCUCAACCUCCAACGCAUCCCACCACAUGAUGAUGCCUGAAGAGCCUUGGUUUUUUG | -3 |
| GACCAAUCUGCCCUCAGAGCUCGAGAACAUCUUCGGAUGCAGAGGAGGCAGGCUUCGGUGGCGCGAUAGCGCCAACGCCCUCAACCUCCAGUGCAUCCCACCACAUGAUGAUGCCUGAAGAGCCUUGGUUUUUUG | -1.15 |
| GACCAAUCUGCCCUCAGAGCUCGAGAACAUCUUCGGAUGCAGAGGAGGCAGUCUUCGGUGGCGCGAUAGCGCCAACGUCCUUAACCUCCAAUGCAUCCCACCACAUGAUUAUGCCUGAAGAGCCUUGGUUUUUUG | -2.9 |
| GACCAAUCUGCCCUCAGAGCUCGAGAACAUCUUCGGAUGCAGAGGAGGGAGGCUUCGGUGGCGCGAUGGCGCCAACGUCCUCAACCUCCAAUGCAUCCCACCACAUGAUGAUGCCUUAAGAGCCUUGGUUUUUUG | -5.87 |
| GACCAAUCUGCCCUCAGAGCUCGAGAACAUCUUCGGAUGAAGAGGAGGCAGGCUUCGGUAGCGCGAUAGCGCCAACGUCCUCAACCUCCAAUGCAUCCCACCACAUGAUGAUGCCUGAAGAGCCUUGGUUUUUUG | -1.03 |
| GACCAAUCUGCCCUCAGAGCUGGAGAACAUCUUCGGAUGCAGAGGAGGCGGGCUUCGGUGGCGCGAUAGCGCCAACGUCCUCAACCUCCAAUGCAUCCCACCACAUGAUGAUGCCUGAAGAGCCUUGGUUUUUUG | -3.5 |
| GACCAAUCUGCCCUCAGAGCUCGAGAACAUAUUCGGAUGCAGAGGAGGCAGGCUUCGGUGGCGCGAUAGCGCAAACGUCCUCAACCUCCAAUGCAUCCCACCACAUGAUGAUGCCUGAAGAGCCUUGGUUUUUUG | -5.35 |
| GACCAAUCUGCGCUCACAGCUCGAGAACAUCUUCGGAUGCAGAGGAGGCAGGCUUCGGUGGCGCGAUAGCGCCAACGUCCUCAACCGCCAAUGCAUACCACCACAUGAUGAUGCCUGAAGAGGCUUGGUUUUUUG | -6.84 |
| GACCAAUCUGCCCUCAGAGCUCGAGAACAUCUUCGGAUGCAGAGGAGGCAUCCUUCGGUGGCGCGAUAGCGCCAACGUCCUCAACCUCCAAUGCACCCCACCACAUGAUGAUGCCUGAAGAGCCUUGGUUUUUUG | -3.75 |
| GACCAAUCUGCCCUCAGAGAUCGAGGACAUCUUCGGAUGCAGAGGAGGCAGGCUUCGGUGGCUCGAUAGCGCCAACGUCCUCAACCUCCAAUGCAUCCAACCAAAUGAUGAUGCCUGAAGAGCCUUGGUUUUUUG | -6.09 |
| GACCCAUCUGCCCUCAGAGCUCGAGAACAUCUUCGGAUGCAGAGGAGGCAGGCUUCGGUGGCGCGAUAGCGCGAACGUCCUCAACCUCCAAUGCAUCCCACCACAUGAUGAUGCCUGAAGAGCCUUGGUUUUUUG | -0.545 |
| GACCAAUCUGCCCUCAGAGCUCGAGAACGUCUUCGGAUGCAGAGGAGGCAGGCUUCGGUGGCGCGAUAGCGCCAACGUCCUCAACCUCCAAUGCAUCCCACCACAUAAUGAUGCCUGAAGAGCCUUGGUUUUUUG | -5.6 |
| GACCAAUCUGCCCUCAGCGCUCGAGAACAUCUUCGGAUGCAGAGGAGGCAGGCUUCGGUGGCGCGAUACCGCCAACGUCCUCAACCUCCAAUGCAUCCCACCACAUGAUGAUGCCUGAAGAGCCUUGGUUUUUUG | -4.31 |

| Variant | polymerase ribozyme fitness (log ratio) |
| --- | --- |
| GACCAAUCUGCCCUCAGAGCUCGAGAACAUCUUCGGAUGCAGAGGAAACAGGGUUCGGUGGCGCGAUAUCGCCAACGUCCUCAACCUCCAAUGCAUCCCACCACAUGAUGAUGCCUGAAGAGCCUUGGUUUAUUG | -0.097 |
| GACCAAUCUGACCUCAGAGCUCGAGAACAUCUUCGGAUGCAGAGGAGGCAGGCUUCGCUGGCGCGAUAGCGCCAACGUCCUCAACCUCCAAUGCAUCCCACCACAUGAUGAUGCCUGAAGAGCCUUGGUUUUUUG | -2.25 |
| GACCAAUCUGCACUCAGAGCUCGAGAACAUCUUCGGAUGCAGAGGAGGCAGGCUGCAGUGGCGCGAUAGCGCCAACGUCCUCAACCUCCAAUGCAUCCCACCACAUGAAGAUGCCUUAAGAGCCUUGGUUUCUGG | -6.47 |
| GACCAAUCUGCCCUCAGAGCUCGAGAACAUCUUCGGAUGCUGAGGAGGCAGGCUUCGGUGGCACGAUAGCGCCAACGUCCUCAACCUCCAAUGCAUCCCACCACAUGAUGAUGCCUGAAGAGCCUUGGUUUUUUG | -2.73 |
| GACCAAUCUGCCCUCAGAGCUCGAGAACAUCUUCGGAUGCAGAGGAGGCAGGCUUCGGUCUCGCGAUAGCGCCAACGUCCUCAACCUCCAAUGCAUCCCACCACAUGAUGAUGCCUGAAGAGCCUUGGUUUUUUG | -1.76 |
| GACCAAUGUGCCCUUAGAGCUCGAGAACAUCUUCGGAUGCAGAGGAGGCAGGCUUCGGUGGCGCGAUAGCGCCAACGUCCUCAACCUCCAAUGCAUCCCACCACAUGAUGAUGCCUGAAGAGCCUUGGUUUUUUG | -1.19 |
| GACCAAUCUGCCCUCAGAGCUCGAGAACAUCUUCGGAUGCAGAGGAGGCAGGCUUCGGUGGCGCGAUAGCGCCAACGUCCACAACCUCCAAUGCAUCCCACCACAUGAUGAUGCCUGAAGAGCCUUGGUUGUUUG | -0.926 |
| GACCAAUCUGCCCUCAGAGCUCGAGAACAUCUUCGGAUGCAGAGGAGGCAGGCUUCGGUAGCGCGAUAGCGCCAACGUCCUCAACCUCCAAUGCAUUCCACCACAUGAUGAUGCCUGAACAGCCUUGGUUUUUUG | 0.712 |
| GACCAAUCUGCCCUCAGAGCUCGAGAACAUCUUCGGAUGCAGAGGUGGCAGGCUUCGGUGGUGCGAUAGCGCCAACGUCCUCAACCUCCAAUGGAUCCCACCACAUGAUGAUGCCUGAAGAGCCUUGGUUGUUUG | -4.7 |
| GACCAAUAUGCCCUCAGAGCUCGAGAACAUCUUCGGAUGCAGAGGAGGCAGUCUUCGGUCGCGCGAUAGCGCCAACGUCCUCAACCUCCAUUGCAUCCCACCACAUGAUGAAGCCUGCAGAGCCUUGGUUCUUUG | -1.41 |
| GACCAAUCUGCCCUCAGUGCUCGAGAACAUCUUCGGAUGCAGAGGAGGCAGGCUUCGGUGGCGCGGUAGCGCCAACGCCCUCAACCUCCAAUGCAUCCCACCACAUGAUGAUGCCUGGAGAGCCUUGGUUUAUUG | -3.83 |
| GACCAAUCUGCCCUCAGAGCUCGAGAACAUCUUCGGAUGCAGAGGAGGCAGGCUUCUGUGCCGCGAUAGCGCCAACGUCCUCAACCUCCAAUGCAUCCCACCACAUGAUGAUGCCUGAAGAGCCUUGGUUUUUUA | -2.69 |
| GACCUAUCUGCCCUCAGAGCUCGAGAACAUCUUCGGAUGCAGAGGAGGCAGGCUUCGGUGGCGCGAUAGCGCCAACGUCCUCAACCUCCAAUGCAUCCCACCACAUGAUGAUGCCUGAAGAGCCUUGGUUUUUUG | -0.135 |
| GACCAAUCUGCCCUCAGAGCUCGAGAACAUCUUCGGAUGCAGAGGAGGCAGGCUUUGGUGGCGCGAUAGCGCCAACGUCCUCAACCUCCUAAGCAUCCCACCACAUGAUGAUGCCUGAAGAGCCUUGGUUUUUUG | -1.45 |
| GACCAAUCUGCUCUCAGAGCUCGAGAACAUCUUCUGAUGCAGAGGAGGCAGGCUUCGGUGGCGCGAUAGCGCCAACGUCCUCAACCUCGAAUGCAUCCCACCACAUGAUGAUGCUUGAAGAGCCUUGGUUUUUUG | -6.55 |
| GACCAAUCUGGCUUCAGAGCUCGAGAACAUCUUCGGAUGCAGAGGAGGCAGGCUUCGGUGGCGCGAUAGGGCCAACGUCCUCAACCUCCAAUGCAUACCACCCCAUGAUGAUGCCUGAAGAGUCUUGGUUUUUUG | -7.22 |
| GACCAAUCUGCCCUCAGAGCUCGAGAACAUCUUCGGAUGCAGAGGAGGCAGGCUUGGGUGGCGCGAUAGCGCCAACGUCCUCAACCUCCAAUGCAUCCCACCACAUGAUGAUGCCUCAAGAGCCUUGGUUUUUUG | -2.91 |
| GACCAAUCUGCCCUCAGAGCUCGAGAACAUCUUCGGAUUCAGAGGAGGCAGGCUUCGGUGGCGCGAUAGCGCCAACGUCCUCAACCUCCAAUGCAUCCCACCACAUGAUGAUGCCUGAAGAGCCUUGUUUUUUUG | -3.06 |
| GACCAAUCUGCCUUCAGAGCUCGAGAACAUCUUCGGAUGCAGAGGAGGCAGGCUUCGGUGGCGCGAUAGCGCCAACGUCCUCAACCUCCAAUGCAUCCCACCACAUGAUGAUGCCUGAAGAGCAUUGAUUUUUUG | 0.853 |
| GACCAAUCUGGCCUCAGAGCUCGAGAACAUCUUCGGAUGCAGAGGAGGCAGGCUUCGGUGGCGCGAUAGCGCCAACGUCCUCAACCUCCAAUGCAUCCCACCACAUGAUGAUGCCUGAAGAACGUUGGUUUUUUG | 1.83 |
| GACCAAUCUGCCCUCAGAGCUCGAGAACAUCUUCGGAUGCAGAGGAGGCAGGCUUAGGUGGGGCGAUAGCGCCAACGUCCUCAACCUCCAAUGCAUCCCACCACAUGAUGAUGCCUGAAGAGCCUUGGUUUUUUG | -3.98 |
